Here are results for six molecules from patent publication US12383631 (BRIGHT PEAK THERAPEUTICS, dated 2025).

B1: recombinant Human Fc gamma RI/CD64 Protein (R&D systems, 1257-FC-050) (receptor)
chain: QVDTTKAVITLQPPWVSVFQEETVTLHCEVLHLPGSSSTQWFLNGTATQTSTPSYRITSASVNDSGEYRCQRGLSGRSDPIQLEIHRGWLLLQVSSRVFTEGEPLALRCHAWKDKLVYNVLYYRNGKAFKFFHWNSNLTILKTNISHNGTYHCSGMGKHRYTSAGISVTVKELFPAPVLNASVTSPLLEGNLVTLSCETKLLLQRPGLQLYFSFYMGSKTLRGRNTSSEYQILTARREDSGLYWCEAATEDGNVLKRSPELELQVLGLQLPTP
notes: detected with an anti-His antibody; tag not described; also called FcγRI/CD64; human Fc gamma receptor I
B2: recombinant Human Fc gamma RIIA/CD32a (H167) Protein (R&D systems, 9595-CD-050) (receptor)
chain: AAPPKAVLKLEPPWINVLQEDSVTLTCQGARSPESDSIQWFHNGNLIPTHTQPSYRFKANNNDSGEYTCQTGQTSLSDPVHLTVLSEWLVLQTPHLEFQEGETIMLRCHSWKDKPLVKVTFFQNGKSQKFSHLDPTFSIPQANHSHSGDYHCTGNIGYTLFSSKPVTITVQVPSMGSSSPMGI
notes: detected with an anti-His antibody; tag not described; also called FcγRIIa (CD32a)
B3: Avelumab/Bavencio (antibody, human IgG1, lambda)
heavy: not shown
light: QSALTQPASVSGSPGQSITISCTGTSSDVGGYNYVSWYQQHPGKAPKLMIYDVSNRPSGVSNRFSGSKSGNTASLTISGLQAEDEADYYCSSYTSSSTRVFGTGTKVTVLGQPKANPTVTLFPPSSEELQANKATLVCLISDFYPGAVTVAWKADGSPVKAGVETTKPSKQSNNKYAASSYLSLTPEQWKSHRSYSCQVTHEGSTVEKTVAPTECS
notes: also called MSB-0010718C
B4: LZM-009 (antibody, V domains shown)
VH: QVQLVQSGAEVKKPGASVKVSCKASGYTFTSYYMYWVRQAPGQGLEWMGGVNPSNGGTNFNEKFKSRVTITADKSTSTAYMELSSLRSEDTAVYYCARRDYRYDMGFDYWGQGTTVTVSS
VL: EIVLTQSPATLSLSPGERATISCRASKGVSTSGYSYLHWYQQKPGQAPRLLIYLASYLESGVPARFSGSGSGTDFTLTISSLEPEDFATYYCQHSRELPLTFGTGTKVEIK
notes: also called LZM-009 anti-PD-1 antibody
B5: Composition A (LZM-009 conjugated to IL-18 polypeptide of SEQ ID NO: 30) (other)
VH: B4 VH
VL: B4 VL
chain: YFGKLKSKLSIIRNLNDQVLFIDQGNRPLFEDMTDSDARDNAPRTIFIISMYADSQPRGMAVAISVKCEKISTLSAENKIISFKEMNPPDNIKDTKSDIIFFQRSVPGHDNKMQFESSSYEGYFLAAEKERDLFKLILKKEDELGDRSIMFTVQNED
B6: Pembrolizumab/Keytruda (antibody, human IgG4 S228P, kappa)
heavy: not shown
light: EIVLTQSPATLSLSPGERATLSCRASKGVSTSGYSYLHWYQQKPGQAPRLLIYLASYLESGVPARFSGSGSGTDFTLTISSLEPEDFAVYYCQHSRDLPLTFGGGTKVEIKRTVAAPSVFIFPPSDEQLKSGTASVVCLLNNFYPREAKVQWKVDNALQSGNSQESVTEQDSKDSTYSLSSTLTLSKADYEKHKVYACEVTHQGLSSPVTKSFNRGEC
notes: also called Lambrolizumab; MK-3475

For assay [1], the target named is T1, Composition B (Atezolizumab/Tecentriq conjugated to IL-18 polypeptide of SEQ ID NO: 30) (human, UniProt P0DOX5 2-449 = IgG part; P0DOX7 1-214; Q14116 37-193, chemical linker to the antibody; site not stated for this composition; chemical linker to IL-18; site not stated for this composition).
T1 construct: immunocytokine
In words: ELISA; immunocytokine coated, receptor titrated, anti-His-HRP. On the procedure: (§1) The interaction of the unmodified and of conjugated antibodies with human Fc gamma receptors I (FcγRI/CD64), with human Fc gamma receptors IIa (FcγRIIa/CD32a), with inhibitory human Fc gamma receptors IIb (FcγRIIb/CD32b), and with human Fc gamma receptors III FcγRIIIa/CD16 were measured by ELISA.
Briefly, Corning high-binding half-area plates (Fisher Scientific, Reinach, Switzerland) were coated overnight at 4° C. with 25 μl of unmodified and of conjugated anti-PD1 antibodies at 2.5 μg/ml in PBS. Plates were then washed four times with 100 μl of PBS-0.02% Tween20. Plates surfaces were blocked with 25 μl of PBS-0.02% Tween20-1% BSA at 37° C. during 1 h. Plates were then washed four times with 100 μl of PBS-0.02% Tween20. […] ELISA signal was then measured at 450 nm on an EnSpire plate reader from Perkin Elmer (Schwerzenbach, Switzerland). Binding Affinity of Reference Antibodies and Immunocytokines with Human Fc Gamma Receptors as Measured by ELISA
(An ELISA detects its analyte on a solid surface through an enzyme-linked reagent.)

The target in assay [2] is T2, recombinant biotinylated human FcRn (human, UniProt P55899 24-297; P61769 21-119, limits assumed, biotinylated).
T2 construct: also called human neonatal Fc receptor (FcRn)
In words: AlphaLISA competition at pH 6; competitor: human IgG on acceptor beads. The protocol: The interaction of the unmodified and of conjugated anti-PD1 antibodies with the human neonatal Fc receptor (FcRn) at pH 6 was measured using the AlphaLISA® Human FcRn Binding Kit (AL3095C) from Perkin Elmer (Schwerzenbach, Switzerland).
After 90 min at 23° C. in the dark, AlphaLISA® signal was measured on an EnSpire plate reader (Excitation at 680 nm, Emission at 615 nm) from Perkin Elmer (Schwerzenbach, Switzerland). Binding Affinity of Reference Antibodies and Immunocytokines with the Human Neonatal Fc Receptor as Measured by AlphaLISA

The target in assay [3] is T3, Biotinylated Recombinant Human PD-1/CD279-Fc Chimera, carrier-free (Biolegend #789406) (human, UniProt Q15116 25-167, biotinylated).
T3 construct: bought; also called recombinant biotinylated human PD-1; Fc part of the bought chimera not given
In words: ELISA; antibody coated, biotinylated PD-1-Fc titrated. On the procedure: (§2) The interaction of the unmodified antibodies and corresponding IL-18 immunocytokines with relevant immune cell associated antigen are measured by ELISA assay. For these studies, Corning high-binding half-area plates (Fisher Scientific, Reinach, Switzerland) are coated overnight at 4° C. with 25 μl of unmodified antibodies corresponding IL-18 immunocytokines at 5 μg/ml in PBS. Plates are then washed four times with 100 μl of PBS-0.02% Tween20. Plate surfaces are blocked with 25 μl of PBS-0.02% Tween20-1% BSA at 37° C. during 1 h. Plates are then washed four times with 100 μl of PBS-0.02% Tween20. […] Plates are then washed four times with 100 μl of PBS-0.02% Tween20. Twenty-five microliters of Streptavidin-Horseradish peroxidase (#RABHRP3, Merck, Buchs, Switzerland) diluted at 1:500 into PBS-0.02% Tween20-0.1% BSA are added to each well and incubated at Room Temperature during 30 min. Plates are then washed four times with 100 μl of PBS-0.02% Tween20. Fifty microliters of TMB substrate reagent (#CL07, Merck, Buchs, Switzerland) are added to each well and incubated at 37° C. during 5 min. After 5 min at 37° C., Horseradish peroxidase reaction is stopped by adding 50 μl/well of 0.5M H_2SO_4 stop solution. ELISA signal is then measured at 450 nm on an ENSPTRE® plate reader from Perkin Elmer (Schwerzenbach, Switzerland).

Assay [4] addresses T3, Biotinylated Recombinant Human …. In words: ELISA: antibody coated on the plate (5 ug/ml), biotinylated human PD-1/CD279-Fc titrated in solution (x-axis), streptavidin-HRP/TMB, 450 nm. The protocol:
as §2

The target in assay [5] is T4, His-tagged human PD1 (R&D #8986-PD) (human, UniProt Q15116 25-167).
T4 construct: bought; not shown: His tag
In words: BLI (Octet), antibody on AHC sensor, His-tagged PD-1 as analyte. An excerpt: (§3) Based on Bio-Layer Interferometry (BLI), Octet® BLI systems enable real-time, label-free analysis for the determination of kinetics and affinity of a ligands to its receptor. Here anti-human IgG FC Capture (AHC) sensors are loaded with the test items (ICs). Sensors are first dipped into a kinetic buffer for baseline measurement, then into an analyte solution, here human PD1, to allow association and again into a buffer solution where the analyte is allowed to come off the ligand (dissociation). Several concentrations of analyte are run in parallel and enable the calculation of affinity parameters: Ka, Kd, KD.
(§4) Typically, first, the sensors are regenerated by 3 cycles of dipping into 10 mM glycine solution at pH=2 for 20 seconds, followed by 20 second kinetics buffer and a final 60 seconds in kinetics buffer to establish the initial signal (baseline). Second, the loading column will contain the ligand, here the unmodified PD-1 antibodies and of IL-18 polypeptide conjugated PD-1 antibody, at a fixed concentration determined in the loading scout experiment (20 ug/mL). Then another wash/baseline step allows non immobilized proteins to be washed away. The association column will contain the 2-fold dilution series of the analyte (His-tagged human PD1, R&D #8986-PD) including a no analyte control. […] The dissociation designates the sensors to return to previous baseline column with kinetics buffer. After acquisition, the data is analyzed with Data Analysis Studio software (Sartorius). Data sets are first preprocessed by subtracting references samples and aligning curves on the baseline step. Group fitting is then applied to the data series and kinetics parameters are calculated.
In general terms: Biolayer interferometry detects binding as a change in optical thickness at a sensor tip.

Assay [6] has as its target T4, His-tagged human PD1 (R&D #8986-PD). In words: BLI (Octet), immunocytokine on AHC sensor, His-tagged PD-1 as analyte.
Source text: as §3, §4

Assay [7] has as its target T3, Biotinylated Recombinant Human …. In words: ELISA; immunocytokine coated, biotinylated PD-1-Fc titrated. The protocol: as §2
For assay [8] the target is unchanged. In words: ELISA: immunocytokine coated on the plate (5 ug/ml), biotinylated human PD-1/CD279-Fc titrated in solution (x-axis), streptavidin-HRP/TMB, 450 nm. On the procedure:
as §2

Assay [9] deals with T5, recombinant Human Fc gamma RIIIA/CD16a Protein (R&D systems, 4325-FC-050) (human, UniProt P08637 17-208).
T5 construct: detected with an anti-His antibody; tag and allotype not described; also called FcγRIIIa (CD16)
In words: ELISA; antibody coated, receptor titrated, anti-His-HRP. On the procedure:
as §1
(§5) Briefly, Corning high-binding half-area plates (Fisher Scientific, Reinach, Switzerland) were coated overnight at 4° C. with 25 μl of unmodified and of conjugated anti-PD1 antibodies at 2.5 μg/ml in PBS. Plates were then washed four times with 100 μl of PBS-0.02% Tween20. Plates surfaces were blocked with 25 μl of PBS-0.02% Tween20-1% BSA at 37° C. during 1 h. Plates were then washed four times with 100 μl of PBS-0.02% Tween20. Then twenty-five microliters of either recombinant Human Fc gamma RI/CD64 Protein (R&D systems, 1257-FC-050, CF), recombinant Human Fc gamma RIIA/CD32a (H167) Protein (R&D systems, 9595-CD-050, CF), recombinant Human Fc gamma RIIB/CD32b Avi-tag Protein (R&D systems, AVI1875-050, CF), or recombinant Human Fc gamma RIIIA/CD16a Protein (R&D systems, 4325-FC-050; CF) were added in five-fold serial dilutions ranging from 1000 nM to 0.001 nM into PBS-0.02% Tween20-0.1% BSA and incubated at 37° C. during 2 h. Plates were then washed four times with 100 μl of PBS-0.02% Tween20. Twenty-five microliters of a 1/500 HRP-anti-His antibody in PBS—0.02% Tween20-0.1% BSA (R&D systems, anti-HIS—HRP Ab, #MAB050H) were added to each well and plates were incubated at Room Temperature during 1 h. Plates were then washed four times with 100 μl of PBS-0.02% Tween20. Fifty microliters of TMB substrate reagent (#CL07, Merck, Buchs, Switzerland) were added to each well and incubated at 37° C. during 5 min. After 5 min at 37° C., Horseradish peroxidase reaction was stopped by adding 50 μl/well of 0.5M H2SO4 stop solution. ELISA signal was then measured at 450 nm on an EnSpire plate reader from Perkin Elmer (Schwerzenbach, Switzerland). Binding Affinity of Reference Antibodies and Immunocytokines with Human Fc Gamma Receptors as Measured by ELISA

Assay [10] concerns the target B1. Described as above. The protocol:
as §1, §5

Usually Kd stands for the equilibrium constant for the complex coming apart. As to B1, in assay [1], the Kd is 10.8 nM.

For the molecule B2, in assay [1], the Kd was 1740 nM.

As for B3, the Kd in assay [2] stood at 5.36 nM.

One may read the EC50 (read off the curve) as the midpoint of the concentration-response curve. A word on the koff: it is the first-order rate constant of dissociation. As usually defined, the kon is the rate constant with which the complex forms. Regarding B4, the Kd in assay [3] was 0.0407 nM. For the same molecule, the “EC50 (read off the curve)” value in [4] was around 0.06 nM. In assay [5], the Kd was 23.5 nM, the koff was 0.0077 s⁻¹ and the kon worked out at 342000 M⁻¹ s⁻¹.

B5: in [6], the Kd was 11.5 nM, the koff amounted to 0.00479 s⁻¹ and the kon was 454000 M⁻¹ s⁻¹. Further, the equilibrium dissociation constant (Kd) in assay [7] amounted to 0.0467 nM. Further, in [8], the “EC50 (read off the curve)” value was around 0.07 nM.

B6: the Kd was determined as 1660 nM in [9], 0.593 nM in assay [10] and 7.45 nM in assay [2].
